Entries after “also recorded” stand apart in the source; their conditions may differ.
Assays:
TAPBPR/HLA-A02 complexes = molecular target: T1, TAPBPR/HLA-A02 complexes (Homo sapiens, UniProt P04439); experiment: native gel electrophoresis: release of HLA-A02 from tetramerized TAPBPR/HLA-A02 complexes by peptide; type: binding; conditions: biotinylated TAPBPR/HLA-A02 tetramerized with Streptavidin-PE; TAX 25, 125 or 2500 pmol; P18-I10 2500 pmol; 12% acrylamide gel
T1 construct: Plasmid DNA encoding the luminal domain of class I MHC (MHC-I) heavy chains H2-D^d, HLA-A*02:01; made in house
Source text: The peptide receptive MHC-I complexes were isolated by gel filtration and tetramerized with Streptavidin-PE.

[1] = test system: murine cells expressing the B4.3.2 TCR, DMF5 human T cells expressing the MART-1 TCR, NY-ESO-1 human T cells expressing the NY-ESO-1 TCR; experiment: flow cytometry staining of TCR-expressing cells with pMHC-I tetramers; type: cell-based; conditions: TAPBPR at up to 1:100 molar ratio with MHC-I
Protocol: Flow cytometry was performed using commercially available tetramers prepared by currently available methods (“conventional”), as well as by the disclosed methods involving TAPBPR peptide exchange using a stoichiometric amount of TAPBPR (“exchanged stoichiometric”), a catalytic amount of TAPBPR (1:100 TAPBPR: MHC-I) (“exchanged catalytic”) or a mismatched peptide. […]. Tetramers prepared by the disclosed methods performed similarly to tetramers commercially produced using conventional methods.
FIG. 7C illustrates a titration of P18410/H-2D^d binding to B.4.2.3 cells (top), HLA-A*2:01/MART-1 binding to DMF5 cells (middle) and HLA-A*2:01/NY-ESO-1 peptide binding to NY-ESO-1 cells (bottom). The binding compares commercially available pMHC-I tetramers prepared using conventional methods (refolded) with pMHC-I tetramers prepared using the disclosed methods. […]. Data shown is representative of triplicate assays and error-bars are standard deviation from the mean.
Tetramer formation The procedure for production of peptide loaded tetramers using TAPBPR mediated exchange is described in See, e.g., Overall et al., “High Throughput pMHC-I Tetramer Library Production Using Chaperone Mediated Peptide Exchange,” bioRxiv, doi:10.1101/653477 (2019), which is hereby incorporated by reference in its entirety herein. […]

goldilocks/HLA-A*02:01 = goldilocks/HLA-A*02:01 (Homo sapiens, UniProt P04439); experiment: native gel electrophoresis assay of TAPBPR-mediated peptide exchange on p*MHC-I; conditions: overnight incubation, excess peptide of interest, TAPBPR:MHC molar ratio 1:1 down to 1:1000

| Substance | release of HLA-A02 proteins from the TAPBPR/HLA-A02 complexes (native gel) (TAPBPR/HLA-A02 complexes) | peptide exchange catalysed by TAPBPR (FIGS. 7A-7C) [1] | peptide exchange on goldilocks/HLA-A*02:01 (formation of pMHC species) (goldilocks/HLA-A*02:01) |
| --- | --- | --- | --- |
| RGPGRAFVTI [P18-I10] | showed no HLA-A02 proteins | – | – |
| TAPBPR: molecular chaperone; recombinant luminal domain expressed in Drosophila S2 cells | – | catalyzes efficient peptide exchange when present at up to 1:100 molar ratio with MHC-I | complete peptide exchange; also recorded: catalyzes efficient peptide exchange when present at up to 1:1000 molar ratio with MHC-I |

From US12703930B2, “Systems and methods for identification of MHC-I peptide epitopes” (THE REGENTS OF THE UNIVERSITY OF CALIFORNIA, priority 2020, dated 2026)
